Results: publication PMC4585773, “The C-terminus hot spot region helps in the fibril formation of bacteriophage-associated hyaluronate lyase (HylP2)” (Scientific Reports, 2015)

B1: bacteriophage-associated hyaluronate lyase HylP2 (enzyme, Streptococcus pyogenes bacteriophage, UniProt Q54699 1-337, looked up)
chain: MSENIPLRVQFKRMKAAEWARSDVILLESEIGFETDTGFARAGDGHNRFSDLGYISPLDYNLLTNKPNIDGLATKVETAQKLQQKADKETVYTKAESKQELDKKLNLKGGVMTGQLKFKPAATVAYSSSTGGAVNIDLSSTRGAGVVVYSDNDTSDGPLMSLRTGKETFNQSALFVDYKGTTNAVNIAMRHATTPNFSSALNITSGNENGSAMQLRGSEKALGTLKITHENPSIGADYDKNAARYPLILSKRQNGAGTAAQGIYINSTSGTTGKLLRIRNLSDDKFYVKSDGGFYAKETSQIDGNLKLKDPTANDHAATKAYVDKAISELKKLILKK
notes: hyaluronate lyase HylP2 encoded by a Streptococcus pyogenes bacteriophage, full length, residues 1-337; also called HylP2_(1-337); phage hyaluronate lyase; source: E. coli BL21 (DE3), purified
B2: HylP_(M179V,M181V) (enzyme, Streptococcus pyogenes bacteriophage, UniProt P15316 1-371, looked up)
chain: MTENIPLRVQFKRMSADEWARSDVILLEGEIGFETDTGFAKFGDGQNTFSKLKYLTGPKGPKGDTGLQGKTGGTGPRGPAGKPGTTDYDQLQNKPDLGAFAQKEETNSKITKLESSKADKSAVYSKAESKIELDKKLSLTGGIVTGQLQFKPNKSGIKPSSSVGGAINIDMSKSEGAAVVVYTNKDTTDGPLMILRSDKDTFDQSAQFVDYSGKTNAVNIVMRQPSAPNFSSALNITSANEGGSAMQIRGVEKALGTLKITHENPNVEAKYDENAAALSIDIVKKQKGGKGTAAQGIYINSTSGTAGKMLRIRNKNEDKFYVGPDGGFHSGANSTVAGNLTVKDPTSGKHAATKDYVDEKIAELKKLILKK
notes: hyaluronate lyase HylP of a Streptococcus pyogenes bacteriophage, residues 1-371, with M179V and M181V; made from the vector construct of full length HylP; Generated from the vector construct of m2; also called hot spot double mutant of HylP; source: E. coli BL21 (DE3), purified

What was measured:
[1] = target: the molecule itself; experiment: SEC; Superdex 200 HR 10/300, 25 °C, pH 5, 0.3 ml/min; step: the native enzyme to high molecular weight aggregates (void volume), compared with pH 7; no seeds
[2] = target: the molecule itself; experiment: thioflavin T fluorescence kinetics; pH 5, 5 uM protein, 10 uM ThT, emission at 480 nm against time, seeded with preformed HylP2 fibrils; step: the native enzyme to fibrils

Row | Protein | binding result [1] | binding result [2]
1 | B1 | binds | 
2 | B2 |  | binds
